The DeepSol protein solubility set

Experiment: soluble on expression in E. coli; label from the status in PepcDB or PDB records

Sequence | soluble on expression in E. coli
MSLEDYTRIVADRMEGQSQVQVRAEGNVVVERNRTTLNADWADYDQSGDTVTAGDRFALQQDGTLIRGETLTYNLEQQTGEAHNVRMETEHGGRRLQSVSRTAEMLGEGHYKLTETQFNTCSAGDAGWYVKAASVEADREKGIGVAKHAAFVFGGVPIFYTPWADFPLDGNRKSGLLVPSLSAGSDGVSLSVPYYFNLAPNLDATFAPGVIGERGAVFDGQVRYLRPDYAGQSDLTWLPHDKKSGRNNRYQAKWQHRHDISDTLQAGVDFNQVSDSGYYRDFYGNKEIAGNVNLNRRVWLDYGGRAAGGSLNAGLSVLKYQTLANQSGYKDKPYALMPRLSADWRKNTGRAQIGVSAQFTRFSHDSRQDGSRLVVYPDIKWDFSNSWGYVRPKLGLHATYYSLNRFGSQEARRVSRTLPIVNIDSGMTFERNTRMFGGGVLQTLEPRLFYNYIPAKSQNDLPNFDSSESSFGYGQLFRENLYYGNDRINTANSLSAAVQSRILDGATGEERFRAGIGQKFYFKNDAVMLDGSVGKKPRSRSDWVAFASSGIGSRFILDSSIHYNQNDKRAENYAVGASYRPAQGKVLNARYKYGRNEKIYLKSDGSYFYDKLSQLDLSAQWPLTRNLSAVVRYNYGFEAKKPIEVLAGAEYKSSCGCWGAGVYAQRYVTGENTYKNAVFFSLQLKDLSSVGRNPADRMDVAVPGYIPAHSLSAGREGHHHHHH | not soluble
MSLSDFDYIQKNTPPEFPEKFKTALLPENIKKNRYSDVLANDDTRVKLNNNGYINANYIFQGRMIASQAPTIETIPDFLQMIIEQQVPIVIMLTKCKEKTRIKATPYWGYKSEGGKKVFGNYTVNTIDTLYDDVEEDKFMEDIQIRYLQIIYEDGVYSFIQIHYMGWPDFGVPLNPKDALDIVYIQYIIGTTSKFSNRNLVCVHCSAGVGRTGVYCLLSRIVEMVTYEILEKSETYSKQRSTSSSSKVREVEDRIEEILLSHPVISYEDCEVILPELVLSIRNERSKMVQTKEQYDFICETVNCFYEDALDSINQYYEVIDALTPLLQEKHSEIVQDFIKRNEEGHHHHHH | soluble
MNIAAESSAKPVWGPPNFCAAAARMQDVRVLMHPKTGRAFRSPVEPGSGWPGDPATPQTPVAADAAQVSALAGGAGSICELNALISVCRACPRLVSWREEVAVVKRRAFADQPYWGRPVPGWGSKRPRLLILGLAPAAHGANRTGRMFTGDRSGDQLYAALHRAGLVNSPVSVDAADGLRANRIRITAPVRCAPPGNSPTPAERLTCSPWLNAEWRLVSDHIRAIVALGGFAWQVALRLAGASGTPKPRFGHGVVTELGAGVRLLGCYHPSQQNMFTGRLTPTMLDDIFREAKKLAGIE | soluble
MVKPMHLFAVVDALEQAQQFQQVLASRDVSTELVQIEQLNARFLRHHPELALCVDLDGLWLSANGMKMQPDWQAEIPRLKRASLKSEMIARACQINEQPSLIDATAGLGHDSLLMAYLGAHVTLVERHPVLFTLLEDAKSKAENDPFLSKYMQRIHLIFQDAHYYLQQCNQDDRKVDVIYLDPMFPQRDQHHQVIKKQAQVKKQMQLLHLLLPEDGEMDLGDQLLPLAQQIASRVVVKRPKHAVFLNEQQPDHQWQGDACRFDAYFQISM | not soluble
MQNDVFFDLTQHGFSEDEASQLMVYGQELELPTRHILSHQGEFSSHIYFILEGLCHASYLTEKGKEFSKEFYWEKDWVIGFESVIKGQPSPYLLETLTACHLFCLPIEALHQWRAEKHSIYLKLLETQLMNKENKERFMLLYSPEERYQLFCHHYPDLEQRITDSQIAAYLGITAISLSRIKARLAKDNK | not soluble
MGSDKIHHHHHHMHEDHFDKFVQKNLDRNIPIVTTEEAGKSLKELGFMKRHPLKTWDTLIVERGNTLLRVTAMPGRHGPPIVAELLPEVMGSLLDFGIKNSPRSYRMYISGDTMVFDDIKEIPRRYPDVDLALLHLGGTRLLGLVTVTMDAKEGVKMMQLIVPRKAIPIHYNDYDVFKSPLSDFKKEMERAGLQDKIIYLEHGDTYEFDLEEK | not soluble
MSLRTIPLLCFNDVYRVNQKYNPQPGAPEDNSPDRTITVSQFAELLLSERSKWADRQSEDQDDQEGPSKEGLVLFAGDVFNPSVESSVTRGSHMVPIMNALKVDYACVGNHDFDFGFPHLTKLVESTSFPWLLSNIVDTNTGRQPEPLKRFIVTERCGVKIGLIGLVEKDWIATIPSWPHNFRYRSMKDTALELSRELRDPNGEHQVDIIIALTHCRVPNDIRLAIELGAVADKPGVENEHGIDLIVGGHDHIYYIGKGATSWEGYAGRKDVPGTTEDHGVRLIKSGTDFRDLTSANLTVTPTPLGSIRRQLITSLTGKHLYVLPSSPSSPPFEELVKSLLSSVSEALTKPVCFTLTPFDARSEVVRTQESGLGNWIADVLMHAYAESIVQAKGKEGGLGEEFEGDADAAILCGGTLRGDSQYGPGKISLGDILEILPFEDPVVCIELDGKGIWNALESALSKWPAQEGRFPIVSGLAVKWDHTRPPGQRILSIHQIAQPKKDDDDWEDPADMVDFKEQEDGTTVVVKQKKLQLGEEVKNEEGGRMYKVITRDYMAQGYDGFEALKNRNFIVDDENGQIMSSILRSFLLGSSYIFRHKQLEEAAHSHLSRRTSEGHHHHHH | soluble
MRYSDGRYEADIDITVEEWKSMLQNPKIFGPKYLDMILKWYYEIDHRATSQAIMAKYPSELKGTPYNGYVIGLTNRIIKYLNRFEVIGTQGNESKFIVPFEGWYEDYKEGNHFVWKVRDELVQAIEELGLVDEKKFPSEEEELKSYSIENRKDGKIIMRYTTQYERNPINRRNAIRIHGTVCQGCGFDFEKVYGEIGKDYIEVHHIKPLYEGGGSVPINAETDLICVCANCHRMIHRRKDKVLSLKELQKLLLANKNLEHHHHHH | soluble
MGSDKIHHHHHHMQSKSDIQRLLTIMERLRDPQTGCPWDKAQSYQTIVPFTLEEAFEVADTIERGALDELPGELGDLLFQVIFYCQLGKEQGRFDFDQVVEKICTKLTERHPHVFGEMTQASSESVRETWESIKAKERKGRSLHSVLDDIPRSLPALTRAAKVQRRVATVGFDWNDLGPVVAKIHEEIDEVMVEVAAQDRDKMEDELGDLLFAVVNLARHLKLDPEQALRRATNKFEHRFRGVEALAAQSGKAMQEHSLTELDAYWEQVKRNDPLKG | not soluble
MGSDKIHHHHHHMIRKNHKPAFCDENPIDCHFDVKSYPAGTTVHNNDTNIIYLIFCMKGHARITSTFFHDEILCAGEVMFVPHGSEYSGVALSDVTLLVHKFNNTVCRAENCILSYLYSHKNIDSKIYCCQRRT | not soluble
MSLQTKHIDDLKEALMCQRNNDDKLEDLVGKIVNDYHTYAGKRSELSYRCCAHYFAPSWNTPIENSMLWMGGCRPSSFIRLIYALCGSQAETQLSQYLLKIDDDFDINHGGFMSDLTATQLGKLNDLHLEVIKKEDKITKTSANFQDDVADLPIADVVHADVAVEDALDKHEEGMAVLLAEADKLRFETLRKIVDVVTPLQAVEFLLAGKRLQLSLHDRGRVRADVCGGVGGAAV | soluble
MSLNTIYEPSSICMIRTPLLSVEFFNLFLNTEQIKYSDLQLNAQMKESILTTTFNLYCTLQEINFDGDNKKVRDAKESLLKYLIRMSTRPTPFGLLSGINLGHFVNEPTRLKVGNSIQKYVKVDGEWLYKLVSYIESIDEYYQNLKVIWNSKAHIINDRIYLNEQSAIYLNNNKDTSFSIKNSELLVFIKTTVTNNNITFSNLAEKINQEFEINDITKVKVYIHNLVSKEIIYSTIRPPLSYSDNLNYILNKLSLHNDDFVKKIREIQKLILAYEKTEIGFGEELYKDIIHHMKALFKCKNYLQIDTKIDMINNYLHQDIATNISEAAYLLWLLSRNNIGFTDLKVLHNRFIEKYGFEQLVNIKDLISDITGFGTTIFQEEETDGNNIVMLKQKFLHALRNNDEIVINEKDVESLINDNEINHYHAPMSADVYAELYLGRFYNQYNELIVISPLTASFNAGATFGRFHHLIDTETLAKLEHEKGHYYQKMICDDNVEMISINNIPKYPRNHNVLTNHDSYEYSLNLGSSNSYSKYELTLDDIYVGATFNKLYLYSSQLNKRVIFESNNMYNFLKECNLYRLLREISMESVKCIEPMNDVSIDSFSYSPRIRYKNVILKPAYWKINEMVLPLPKNEEWDQQFLKYQEQFNIPNIVNLVYGDNKLLLNLSLANHRYLLMKEYKKHKRVRLVESFLPQSKNDHVYEIVTPIYKKSSYRGEGHHHHHH | not soluble
MLQPPFNIKVTNITLTTAVVTWQPPILPIEGILVTFGRKNDPSDETTVDLTSSITSLTLTNLEPNTTYEIRIVARNGQQYSPPVSTTFTTGSLEHHHHHH | soluble
MESFQTIVDNEVLMESCGIQQESKIKNFPWAVSFTVDGVNRLGGSIISPYHIITAAHGFITTIGSRGNLCENKNWKKPNSSIYRSIKFLRDTRKVAYGGTCIRGHTDKYPNDPRCKKSDVIHNKVRAVLVDGEFASSNCLKGHDWAIVEVEKRIHFSENVRPICLPRPNMYYTKSLAVPGWGRIFNESGPLIHEIPMRIDRDCKRPWSDRLPADADDFICATSMNVSNYSAPRTCHGDSGGGLEYRDDNYGRAFLIAITSFGTRGCPSNMLARFTRVDMYLNLICNYTGVCY | not soluble
MGSDKIHHHHHHMNEIFVFHGQEVRTVTINNEPWFVGKDVADILGYSKSRNAIALHVDEDDALKQGITDNLGRMQETIIINESGLYSLILSSKLPQVKEFKRWVTSEVLPQIRQQGAYVPENLSDEAFIALFTGQKKLKEHQLALAQDVDYLKNEQPIHPSFAQALLKKRKARVVSCLGGMDSPAYADKVFAQSVFRQAEVDFKDHFNINRYDMLPKKFAEAALSYWMTWEPSTNTKMKILEMNAYEL | not soluble
MSLELKPKRFLVLDDQLVLRKLISRQASFFTRFAVEIDEFSDPAEALRSIAEGGYHLVITDIGMPGMNGIDFIKNVARLGYQSALLIISGYDGKTLQTIADMSVNLGLSCTRFLSKPYSAEAFVAALNGIFSEMERSEAPAVGDVAQLLADLGGETFRMQFAPVRSLHGRRLAGFTLRTLQLPDGRRLAFDRLLALLAGRRMASAALLEIVVERTARLLQDMRLSAGIDDCRVNIRIDEACLSADNVFDRCFMALQQSEVSPACLGFALADGLNRRSDALCFENIAKVKYLGFRLLADGFGQGSLTVSNLFRLPFDQVNAPLEALQWMKILQGEDPGAFRLLRSFGLGQAPVCATGLDDEESLALAQALGCGLGEGDAVSLAVPEEELLQEMAAVPEGEGHHHHHH | soluble
MGSDKIHHHHHHMGKGFTGAILTVMGVKSHIATTTGKTVINDRMVTIHFHSETLLNTEGEVPGDWLRLWFPHESRPGKLYQRAYTLTNVDADAGTFDLAFVLHEPLGPASAWATRCEAGESLEVMRYPGIPFAIPDPAPRGFLFLGDLTSYPAICSILETLDGEIPATAYLIAHDPLDYTFDFPQGEHITAQWISNEQSFIDHIADTDYTDFYTWIGAESSETRAAKKHLQTHAGMPKTHMNAQGYWNKGRAMGKSN | not soluble
MGSDKIHHHHHHMQTTTALRLYGKRDLRLETFTLPAMQDDEILARVVTDSLCLSSWKEANQGADHKKVPDDVATRPIIIGHEFCGEILAVGKKWQHKFQPGQRYVIQANLQLPDRPDCPGYSFPWIGGEATHVVIPNEVMAQDCLLTWEGDTWFEGSLVEPLSCVIGAFNANYHLQEGSYNHVMGIRPQGHTLILGGTGPMGLLAIDYALHGPINPSLLVVTDTNKPKLSYARRHYPSEPQTLIHYLDGHEASRDTLLALSGGHGFDDIFVFVPNEQLITLASSLLAPDGCLNFFAGPQDKQFSAPINFYDVHYAFTHYVGTSGGNTDDMRAAVALMQAKKVQTAKVVTHILGLNAAGETTLDLPAVGGGKKLVYTGKAFPLTPLGEIADPELAAIVARHHGIWSQDAEAYLLAHAEDITHD | not soluble
MARVEGELFKIARASLEAEPIAWRYRYVKKGVMDSQGELWVGDWKYVPKKEDCNDRPNYEIQALFTAPPVPVTSEELVKAVHFYEQLKRENPPASGNQINGLTMSVKRPAN | not soluble
